Measurements as given in patent US20160311886A1, “Constructs Binding to Phosphatidylserine and Their Use in Disease Treatment and Imaging” (Board of Regents, The University of Texas System, priority 2005, published 2016).

Experiments:
[1] = Reactivity of 9D2 and annexin V with plastic-immobilized phospholipids (panel); assay type: binding
Protocol: Phospholipids were dissolved in n-hexane to a concentration of 50 μg/ml. 100 μl of this solution was added to wells of 96-well microtiter plates. After evaporation of the solvent in air, the plates were blocked for 2 h with 10% fetal bovine serum diluted in DPBS containing 2 mM Ca^2+ (binding buffer).
9D2 antibody or annexin V were diluted in the binding buffer in the presence of 10% serum at an initial concentration of 6.7 nM. Serial two-fold dilutions were prepared in the plates (100 μl per well). The plates were then incubated for 2 h at room temperature. The plates were washed and the 9D2 and annexin V were detected by goat anti-rat IgM conjugated to HRP and rabbit anti-human annexin V followed by goat anti-rabbit IgG conjugated to HRP (all diluted 1:1000), respectively. Secondary reagents were detected by using chromogenic substrate OPD followed by reading plates at 490 nm using a microplate reader (Molecular Devices, Palo Alto, Calif.).
The specificity of the 9D2 antibody binding was validated by using control rat IgM of irrelevant specificity (Pharmingen, San Diego, Calif.). The specificity of annexin V binding to phospholipids, which is Ca^2+-dependent, was determined by diluting the reagent in the DPBS containing 5 mM EDTA. Additional negative controls consisted of washing the plates with the binding buffer containing 0.2% of a detergent Tween 20. This treatment extracts lipids, thus removing the phospholipid that was absorbed to plastic. Neither 9D2 antibody nor annexin V bound to detergent-washed plates.

[2] = Competition of 9D2 and annexin V for binding to immobilized PS; conditions: competitor in 10-fold molar excess
Protocol: Biotinylated 9D2 antibody and annexin V were prepared by incubating purified proteins with a 10-fold molar excess of N-hydroxysuccinimide biotin (Sigma, MO) for 1 h at room temperature. Free biotin was removed by dialysis against PBS. […] For competition studies, […] biotinylated proteins were premixed with a 10-fold molar excess of unmodified proteins. The mixtures were then added to PS-coated plates. Bound reagents were detected by streptavidin-HRP conjugate diluted 1:1000. The binding to PS of each reagent in the absence of a competitor was taken as the 100% value.

[3] = test system: bEnd.3 and ABAE cells; assay: Binding to cultured endothelial cells and inhibition by liposomes; assay type: cell-based, mouse, bovine; conditions: quiescent conditions
Protocol: Endothelial cells were grown until they reached approximately 70% confluence. To induce PS exposure, cells were treated with H2O2 (200 μM) for 1 h at 37° C. Control and treated slides were washed with DPBS containing Ca^2+ and Mg^2+ and fixed with 0.25% of glutaraldehyde diluted in the same buffer. Excess aldehyde groups were quenched by incubation with 50 mM of NH4Cl for 5 min. To examine the effect of detergents and organic solvents on detection of phospholipids, some slides were pre-incubated with acetone (5 min) or with PBS containing 1% (v/v) Triton™ X-100.
Cells were washed with DPBS (containing Ca^2+, Mg^2+ and 0.2% (w/v) gelatin) and incubated with 1 μg/ml of biotinylated annexin V (Pharmingen, San Diego, Calif.) or with 1 μg/ml of 9D2 antibody. After 2 h of incubation, cells were washed with 0.2% gelatin buffer and were incubated with streptavidin-HRP (1:500 dilution). […] HRP activity was measured by adding O-phenylenediamine (0.5 mg/ml) and hydrogen peroxide (0.03% w/v) in citrate-phosphate buffer, pH 5.5. After 15 min, 100 μl of supernatant were transferred to 96 well plates, 100 μl of 0.18 M H2SO4 were added and the absorbance was measured at 490 nm. Alternatively, PS-positive cells were detected by addition of carbazole substrate, resulting in insoluble red-brownish precipitate. […]

[4] = test system: Meth A fibrosarcoma; assay: 3G4 tumor treatment; assay type: in vivo, mouse
Protocol: Treatment was repeated 3 times a week. Animals were monitored twice a week for tumor measurements.
Groups of 8-10 female SCID mice were injected subcutaneously with 2×10^7 L540 cells or orthotopically with 1×10^7 MDA-MB-435 or MDA-MB-231 cells. BALB/c mice were injected subcutaneously with 1×10^6 Meth A cells. Tumors were allowed to grow to an average diameter of 0.8-1 cm (L540), 0.6-0.7 cm (MDA-MB-435), 0.5-0.7 cm (MDA-MB-231), or <0.1 cm (Meth A). […] Animals were monitored three times a week for tumor size and body weight. Mice were sacrificed when tumors in control mice reached a diameter of 1.5-2 cm.

[5] = test system: Pan02 mouse pancreatic adenocarcinoma; assay: 3G4 and gemcitabine, pancreatic cancer; assay type: in vivo; conditions: 3G4 100 μg, gemcitabine 3.5 mg; day 22
Protocol: Pan02 mouse pancreatic adenocarcinoma cells were injected into the pancreas of immunocompetent C57BL/6 mice. Treatment was started on day 5 after tumor cell injection. […] Gemcitabine is a pyrimidine anti-metabolite. The animals were sacrificed at day 22 after tumor cell injection, and the tumor weight determined.

[6] = Anti-PS ELISA in OVA or sera of different species; assay type: binding
Protocol: The assay was performed as follows (see also, Ran et al., 2005, specifically incorporated herein by reference). PS-coated Immunlon 1B microtiter plates were blocked overnight in 1% OVA (w/v). […] Dilutions were performed in 1% OVA or 10% non-heat inactivated sera from cow, human, rat or mouse. […] All ELISA studies were performed at least three times.

[7] = test system: Tissue Factor (TF)-induced coagulation
[8] = test system: human CMV AD169; assay: CMV plaque assay after antibody treatment

Annexin V: High affinity PS binding ligand; natural ligand binding anionic phospholipids and PE
binding to heparin, heparan sulfate or double or single stranded DNA [1]: did not bind detectably | order of strength of binding to phospholipids in ELISA [1]: PI>PS=PE=PA=CL>PG | effect of EDTA on binding to anionic phospholipids ([1]; 5 mM EDTA): abolished | Binding (% Control) of Biotinylated 9D2 to PS [2]: 93% | Binding (% Control) of Biotinylated annexin V to PS [2]: 8% | binding to non-permeabilized monolayers [3]: Neither 9D2 nor annexin V bound

B1: 3G4: Mouse IgG3 kappa monoclonal antibody to PS and anionic phospholipids; binding mediated by β2-glycoprotein I (antibody, listed as Mus musculus)
VH: MGWTWIFILILSVTTGVHSEVQLQQSGPELEKPGASVKLSCKASGYSFTGYNMNWVKQSHGKSLEWIGHIDPYYGDTSYNQKFRGKATLTVDKSSSTAYMQLKSLTSEDSAVYYCVKGGYYGHWYFDVWGAGTTVTVSSATTTAPSVYPLVP
VL: MDMRAPAQILGFLLLLFPGTRCDIQMTQSPSSLSASLGERVSLTCRASQDIGSSLNWLQQGPDGTIKRLIYATSSLDSGVPKRFSGSRSGSDYSLTISSLESEDFVDYYCLQYVSSPPTFGAGTKLELKRADAAPTVFIFGRIP
mice with long-term complete remissions ([4]; Meth A-bearing mice): 50% | retardation of tumor growth ([4]; syngeneic Meth A fibrosarcoma): 90% | anti-tumor effect (tumor weight) [5]: significant anti-tumor effect | binding to PS ([6]; 10% mouse serum): did not bind PS | binding to PS ([6]; 10% rat and human serum): bound PS | binding to PS-coated microtiter plates ([6]; dilutions in 1% OVA, listed as 3G4 purified from SCM): binds PS weakly | binding to PS-coated microtiter plates ([6]; dilutions in 1% OVA, listed as 3G4 purified from SFM): no longer binds PS | binding to PS-coated microtiter plates ([6]; dilutions in 10% FBS): binds to PS-coated microtiter plates | binding to PS ([6]; hamster, ferret, guinea pig, rabbit and monkey serum): bound PS | inhibition of TF-induced coagulation [7]: weak inhibition | inhibitory effect on viral titer ([8]; high m.o.i., addition delayed to 48 hours): 2 log10 | decrease in viral titer ([8]; high m.o.i., addition up to 24 hours after infection): 5-6 log10 | inhibition of viral replication vs GV39G ([8]; m.o.i. of 3, 50 μg/ml): 3 logs | decrease in viral titer vs GV39G ([8]; m.o.i. of 3, 100 μg/ml): 5 log10 | decrease in viral titer vs GV39G ([8]; m.o.i.=0.01, 50 μg/ml): 3.5 log10 | inhibition of viral replication ([8]; m.o.i.=0.01, 100 μg/ml): approximately 99.9999% | decrease in viral titer vs GV39G ([8]; m.o.i.=0.01 pfu/cell, 100 μg/ml): 6 log10
